One experiment has as its target T1, human Resistin (human, UniProt Q9HD89 19-108).
T1 construct: The sandwich ELISA used the R&D kit standard; also called hResistin; huRes
T1 sequence (looked up): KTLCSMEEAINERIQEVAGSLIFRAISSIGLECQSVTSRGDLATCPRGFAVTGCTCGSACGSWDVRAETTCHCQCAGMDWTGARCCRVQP
Kind of experiment: QC ELISA, hResistin coated 5 µg/well, IgG supernatant, FITC-goat anti-human IgG. As to the method: (§1) As a result, 4 IgGs (Clones 1, 2, 13 and 18) bind to two targets positively. hRELMβ: 0.5 μg/well; hResistin: 5 μg/well; secondary antibody: FITC-goat anti-human IgG pAb.
Background: ELISA stands for enzyme-linked immunosorbent assay.

Experiment [1] has as its target T2, human Resistin-Like Molecule Beta (human, UniProt Q9BQ08 24-111, limits assumed).
T2 construct: also called hRELMβ; RELMβ
T2 sequence (looked up): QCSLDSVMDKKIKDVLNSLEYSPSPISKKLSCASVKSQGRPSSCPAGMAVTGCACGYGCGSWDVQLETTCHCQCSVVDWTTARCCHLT
The experiment can be described thus: QC ELISA, hRELMβ coated 0.5 µg/well, IgG supernatant, FITC-goat anti-human IgG. The method, then: as §1

B1: Clone 1 rIgG (antibody, V domains shown)
VH: EVQLLESGGGLVQPGGSLRLSCAASGFTFSSYAMSWVRQAPGKGLEWVSSISQRGRKTLYADSVKGRFTISRDNSKNTLYLQMNSLRAEDTAVYYCAKGLRRFDYWGQGTLVTVSS
VL: DIQMTQSPSSLSASVGDRVTITCRASQSISSYLNWYQQKPGKAPKLLIYMASHLQSGVPSRFSGSGSGTDFTLTISSLQPEDFATYYCQQPRSTPLTFGQGTKVEIKR
notes: Fully human IgG1 converted from scFv, tested as supernatant of expressing cells; Possibly the same clone as Ab1
Consider B1, for which the binding result (in the experiment with human Resistin; in experiment [1]) was “binds” throughout.

B2: Clone 18 rIgG (antibody, V domains shown)
VH: EVQLLESGGGLVQPGGSLRLSCAASGFTFSSYAMSWVRQAPGKGLEWVSTIHKTGSPTYYADSVKGRFTISRDNSKNTLYLQMNSLRAEDTAVYYCAKSLKYFDYWGQGTLVTVSS
VL: DIQMTQSPSSLSASVGDRVTITCRASQSISSYLNWYQQKPGKAPKLLIYRASHLQSGVPSRFSGSGSGTDFTLTISSLQPEDFATYYCQQPRSLPATFGQGTKVEIKR
notes: Fully human IgG1 converted from scFv, tested as supernatant of expressing cells
Turning to B2, the binding result (with human Resistin; in experiment [1]) was “binds” each time.

B3: Clone 2 rIgG (antibody, V domains shown)
VH: EVQLLESGGGLVQPGGSLRLSCAASGFTFSSYAMSWVRQAPGKGLEWVSTITTTGTATWYADSVKGRFTISRDNSKNTLYLQMNSLRAEDTAVYYCAKTLQRFDYWGQGTLVTVSS
VL: DIQMTQSPSSLSASVGDRVTITCRASQSISSYLNWYQQKPGKAPKLLIYEASVLQSGVPSRFSGSGSGTDFTLTISSLQPEDFATYYCQQPRSLPMTFGQGTKVEIKR
notes: as for B2
In the case of B3, the binding result (with human Resistin; in experiment [1]) was “binds” each time.

B4: Clone 13 rIgG (antibody, V domains shown)
VH: EVQLLESGGGLVQPGGSLRLSCAASGFTFSSYAMSWVRQAPGKGLEWVSSIYPQGLRTYYADSVKGRFTISRDNSKNTLYLQMNSLRAEDTAVYYCAKNLAKFDYWGQGTLVTVSS
VL: DIQMTQSPSSLSASVGDRVTITCRASQSISSYLNWYQQKPGKAPKLLIYRASTLQSGVPSRFSGSGSGTDFTLTISSLQPEDFATYYCQQPRALPGTFGQGTKVEIKR
notes: Fully human IgG1 converted from scFv, tested as supernatant of expressing cells; Possibly the same clone as Ab13
Consider B4, for which the binding result (with human Resistin; in experiment [1]) was “binds” in each case.
